Columns and labels:
RsAgo [1] = target: T1, RsAgo (UniProt A4WYU7 A4WYU7:1-777); experiment: EMSA; high affinity to 5'-P ssRNA; 5 mM MgCl2, 200 mM NaCl, 25 C; details: tag removed by Ulp1 protease; label: 3'-FAM
T1 sequence: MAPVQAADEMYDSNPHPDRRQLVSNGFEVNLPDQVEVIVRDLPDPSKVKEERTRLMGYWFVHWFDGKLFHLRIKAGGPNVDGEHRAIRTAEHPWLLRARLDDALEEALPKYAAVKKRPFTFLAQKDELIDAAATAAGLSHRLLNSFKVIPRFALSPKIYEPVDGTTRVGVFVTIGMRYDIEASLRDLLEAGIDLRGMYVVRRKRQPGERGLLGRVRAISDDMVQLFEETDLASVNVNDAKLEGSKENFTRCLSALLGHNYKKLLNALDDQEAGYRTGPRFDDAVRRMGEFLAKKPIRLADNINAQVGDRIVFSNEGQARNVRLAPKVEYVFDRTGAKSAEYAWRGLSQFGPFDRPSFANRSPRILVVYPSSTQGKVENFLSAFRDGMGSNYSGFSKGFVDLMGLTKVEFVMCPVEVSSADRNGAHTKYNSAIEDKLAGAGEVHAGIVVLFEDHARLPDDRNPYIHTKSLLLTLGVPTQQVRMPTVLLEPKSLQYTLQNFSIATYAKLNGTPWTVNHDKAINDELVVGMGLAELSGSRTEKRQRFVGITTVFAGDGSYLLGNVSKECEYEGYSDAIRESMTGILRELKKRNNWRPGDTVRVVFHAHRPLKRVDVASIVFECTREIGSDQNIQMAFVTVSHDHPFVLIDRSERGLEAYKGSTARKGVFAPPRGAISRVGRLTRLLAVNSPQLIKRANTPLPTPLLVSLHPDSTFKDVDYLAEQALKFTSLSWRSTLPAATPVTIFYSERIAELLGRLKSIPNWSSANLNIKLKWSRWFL
Description: (§1) The purified protein and synthetic oligonucleotide were mixed in the presence of the above reaction buffer and incubated for 20 minutes at 25° C. […] Detection was performed with Blue light LED.

RsAgo [2] = target: T1, RsAgo; experiment: EMSA; 20 mM HEPES-KOH pH 7.5, 200 mM NaCl, 5 mM MgCl2, 25 C; details: tag removed by Ulp1 protease
Description: as §1

RsAgo [3] = target: T1, RsAgo; experiment: EMSA; 500 nM RsAgo, 100 nM guide, 100-1000 nM target; 5 mM MgCl2, 25 C; details: tag removed by Ulp1 protease; label: 3'-FAM; duplex with 18 nt mismatched bubble over the target site
Description: (§2) The purified protein (final 500 nM) and labelled guide RNA (final 100 nM) were mixed in the presence of the above reaction buffer and incubated for 15 minutes at 25° C. to form a complex. The target DNA was added (final 100 to 1000 nM) thereto.

RsAgo [4] = target: T1, RsAgo; experiment: EMSA; cannot bind fully double stranded DNA on its own; 5 mM MgCl2, 25 C; details: tag removed by Ulp1 protease; label: 3'-FAM
Description: as §2

B1: ssRNA 18 nt 5'-phosphate guide (ssRNA)
RNA: UUACAACCUACUACCUCG
modifications: 5'-phosphate
RsAgo [1]
  binding result: binds

B2: ssRNA 18 nt 5'-OH (ssRNA)
RNA: UUACAACCUACUACCUCG
RsAgo [2]; label: 3'-FAM
  binding result: binds

B3: ssRNA 18 nt 5'-phosphate guide ; bubble target, 18 nt unpaired (ssRNA ; structured_DNA)
RNA: UUACAACCUACUACCUCG
DNA 1: GGATAACAATTCCCCTCTAGAAGTGGTTCGTGCTTCAACATGGGTCATCACCATCATC
DNA 2: GATGATGGTGATGACCCATGCGAGGTAGTAGGTTGTAACTAGAGGGGAATTGTTATCC
modifications: 5'-phosphate
RsAgo [3]
  binding result: binds

B4: ssRNA 18 nt 5'-phosphate guide ; fully double stranded target (ssRNA ; dsDNA)
RNA: UUACAACCUACUACCUCG
DNA 1: GGATAACAATTCCCCTCTAGTTACAACCTACTACCTCGCATGGGTCATCACCATCATC
DNA 2: GATGATGGTGATGACCCATGCGAGGTAGTAGGTTGTAACTAGAGGGGAATTGTTATCC
modifications: 5'-phosphate
RsAgo [4]
  binding result: no binding

B5: ssDNA 18 nt (ssDNA)
DNA: CGAGGTAGTAGGTTGTAA
RsAgo [2]; label: 5'-FAM
  binding result: binds

Reference: US20240093240, “GENE FUNCTION CONTROL BY NOVEL GUIDE NUCLEIC ACID MECHANISM” (NATIONAL UNIVERSITY CORPORATION KOBE UNIVERSITY, published 2024)
